A word on the Kd: it is a measure of binding affinity in units of concentration. Higher therefore signals weaker binding.

The results in this text go back to article doi:10.1101/2024.06.27.600973.

The target of the assay is NY-ESO-1 peptide on HLA-A*02:01 (human). Kind of assay: data from [38–40].

1G4 had a dissociation constant Kd of 10 µM. This counts as double-digit micromolar.
